Here are results for 2 proteins from article PMC11376072, “Moderately thermostable GH1 β-glucosidases from hyperacidophilic archaeon Cuniculiplasma divulgatum S5” (FEMS Microbiology Ecology, 2024).

Substrate in the data set “purified protein”: O=[N+]([O-])c1ccc(O[C@@H]2O[C@H](CO)[C@@H](O)[C@H](O)[C@H]2O)cc1
Kind of data set: purified protein. Conditions: 50 mM MES pH 5.0, 30°C, 30 min, 0-10 mM substrate.

Data set [1] concerns the molecule itself. As to the kind of experiment: SEC; size-exclusion chromatography of the purified protein; conditions not given.

B1: CIB13, GH1 β-glucosidase from Cuniculiplasma divulgatum S5 (enzyme)
chain: MLPKGFRFGFSLAGFQSEMGLSGKDENSDWYQWCHDEYNIKNGVVSGDFPENGAAYWDLFRKDHETAVNIGMNSTRIGIEWSRIFPTSTEGVKVRIDRDGDNITGITIEKSDLESLKKICNMDAVKKYREIFMDLKDRNFYMILNLFHWSMPLWINDPRKREISKGNNLGNFFSEKSVIEFAKFAAFAAYSFDDLVDVYSTMNEPNVVFSGGNNNSEKKYYSKMKFFIEAHARAYDCIRTISRKRIGVIYANEHIESLENSDPELVEEVTWRNRYSFIDSIKSGKTFSTKNMEENSRWPEKNVFRKDLENRLDWIGVNYYSRYVVRRIESGFEAIDGYGFLCSGYEKSKDGRVVSEMGWEIYPQGLYDVLMGYQERYSLPMMVTENGIADDMDRYRPGFLISHMKMIERAIKDGAGVEGYLHWSLTDNFEWSSGFSKKFGLLRVDYRTKKRSIRPSALVFREISKKSGVPEELEWLGERFY
notes: CIB13, GH1 β-glucosidase of Cuniculiplasma divulgatum S5 (JCM 30642), GenBank SIM79973.1, CSP5_1651; predicted monomeric mass 56.1 kDa; Cloned into p15TvL with an N-terminal 6His-tag; also called CSP5_1651; source: E. coli BL21(DE3) Lobstr, purified (Ni-NTA)
B1: in the data set “purified protein”, the Michaelis constant (Km) was found to be 900 ± 100 µM, the Vmax is 0.93 µmol/min/mg and the kcat was found to be 0.87 s⁻¹. The “stoichiometry N” value in data set [1] is 2.

B2: CIB12, GH1 β-glucosidase from Cuniculiplasma divulgatum S5 (enzyme)
chain: MFPKNFKFGFSEAGFQFEMGVSDIDTNTDWYKWSHDSENIKNHIVSGDRPEEGVGYWDLYPKDHDLAEYIGMNAARIGIEWSRIFPVSTERVTVEVIEENGDILEIKITEKTIKELDLLSDKNAMQHYTNIFNDIKKRGWFLVINLFHWSLPLWINDPSNRNSEKDNALGNCMNRSSVIEFVKYAAYISYYFGSIADRFATMNEPNEVFKTCSEDKRVESYHIRMKWFVEAHARSYDAMKQFTNRQIGVIYANGDVQSFENKDPKLKEEVEYEQRYSFFDALIHGDVHWYVGACRKTNHVHGKSIRPDLSNRIDWIGVNYYSRNVVKRKEDGYENVRGLGYDTGWVSYEKSLDGRSVSETGWEIYPEGIYNIVMSYHKRYELPMMITENGMADDNDRFRPRYLVSHLKNLERAINDGAKVDGYLHWALTDNFEWGSGFSKKFGLIKVDYKTKKRYLRPSALIMKEITKHNGIPEELEWLGEDKF
notes: CIB12, GH1 β-glucosidase of Cuniculiplasma divulgatum S5 (JCM 30642), GenBank SIM59545.1, locus tag CSP5_0942; predicted monomeric mass 56.8 kDa; Cloned into p15TvL with an N-terminal 6His-tag; also called CSP5_0942; source: E. coli BL21(DE3) Lobstr, purified (Ni-NTA)
Turning to B2, in the data set “purified protein”, the Km stood at 500 ± 100 µM, the maximum rate (Vmax) was 0.61 µmol/min/mg and the catalytic constant (kcat) was 0.57 s⁻¹. Also, the “stoichiometry N” value in data set [1] turned out to be 2.
